Like-named read-outs stand apart in the source and are kept apart here. Numbered stars: 1 amine (or outer) side, 2 acyl side, 3 side chain; on linkers, the order of the positions; unused ones are H or OH. Square brackets hold non-standard residues; d marks the D form. Side chains are listed from the residue outwards. Peptide text beside a SMILES is read from it. * marks the point of attachment. C20 diacid = O=C(O)CCCCCCCCCCCCCCCCCCC(=O)*; γGlu = O=C(O)[C@H](CCC(=O)[*:2])N[*:1]; AEEA = NCCOCCOCC(=O)O; Aib = CC(C)(N)C(=O)O
T1: human GIPR (Homo sapiens, UniProt P48546)
T1 construct: expressed in transfected cells; host or cells: wild-type CHO-K1, transient transfection with hGIP receptor plasmid (Fugene HD)
T1 sequence (P48546 22-466): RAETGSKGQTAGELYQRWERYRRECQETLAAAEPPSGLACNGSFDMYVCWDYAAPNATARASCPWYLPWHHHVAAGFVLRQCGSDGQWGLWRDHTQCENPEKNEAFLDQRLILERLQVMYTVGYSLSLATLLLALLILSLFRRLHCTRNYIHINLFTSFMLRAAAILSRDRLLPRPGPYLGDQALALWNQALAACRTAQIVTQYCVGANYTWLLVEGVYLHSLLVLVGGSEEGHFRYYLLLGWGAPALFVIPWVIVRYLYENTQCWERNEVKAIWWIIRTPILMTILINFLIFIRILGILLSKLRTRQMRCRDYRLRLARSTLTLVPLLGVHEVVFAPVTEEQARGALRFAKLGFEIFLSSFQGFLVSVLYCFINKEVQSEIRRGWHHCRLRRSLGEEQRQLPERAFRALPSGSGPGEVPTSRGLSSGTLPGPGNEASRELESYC

T2: human glucose-dependent insulinotropic polypeptide receptor (GIPR) (human, UniProt P48546)
T2 sequence: T1 sequence (P48546 22-466)

B1: compound 18# H-YAibEGTFTSDYSIYK(OEG-OEG-yGlu-C20-OH)EKIAAQEFVNWLLAGGPSSGAPPPS-NH2 (peptide)
peptide: H-Y[Aib]EGTFTSDYSIYK([AEEA-AEEA-γGlu-C20‑OH])EKIAAQEFVNWLLAGGPSSGAPPPS-NH2
B2: compound 14# H-YAibEGTFTSDYSIYK(OEG-OEG-yGlu-C20-OH)EKIAAQEFINWLIAGGPSSGAPPPS-NH2 (peptide)
peptide: H-Y[Aib]EGTFTSDYSIYK([AEEA-AEEA-γGlu-C20‑OH])EKIAAQEFINWLIAGGPSSGAPPPS-NH2
B3: compound 17# H-YAibEGTFTSDYSIYK(OEG-OEG-yGlu-C20-OH)ERIAAQEFVNWLLAGGPSSGAPPPS-NH2 (peptide)
peptide: H-Y[Aib]EGTFTSDYSIYK([AEEA-AEEA-γGlu-C20‑OH])ERIAAQEFVNWLLAGGPSSGAPPPS-NH2
B4: compound 10# H-YAibEGTFTSDYSIYLEK(OEG-OEG-yGlu-C20-OH)IAAQEFINWLIAGGPSSGAPPPS-NH2 (peptide)
peptide: H-Y[Aib]EGTFTSDYSIYLEK([AEEA-AEEA-γGlu-C20‑OH])IAAQEFINWLIAGGPSSGAPPPS-NH2
B5: compound 9# H-YAibEGTFTSDYSIYLEK(OEG-OEG-yGlu-C20-OH)IAAQEFVNWLIAGGPSSGAPPPS-NH2 (peptide)
peptide: H-Y[Aib]EGTFTSDYSIYLEK([AEEA-AEEA-γGlu-C20‑OH])IAAQEFVNWLIAGGPSSGAPPPS-NH2
B6: compound 16# H-YAibEGTFTSDYSIYK(OEG-OEG-yGlu-C20-OH)EKIAAQEFINWLLAGGPSSGAPPPS-NH2 (peptide)
peptide: H-Y[Aib]EGTFTSDYSIYK([AEEA-AEEA-γGlu-C20‑OH])EKIAAQEFINWLLAGGPSSGAPPPS-NH2
B7: compound 12# H-YAibEGTFTSDYSIYK(OEG-OEG-yGlu-C20-OH)EKIAAQEFVNWLIAGGPSSGAPPPS-NH2 (peptide)
peptide: H-Y[Aib]EGTFTSDYSIYK([AEEA-AEEA-γGlu-C20‑OH])EKIAAQEFVNWLIAGGPSSGAPPPS-NH2
B8: compound 15# H-YAibEGTFTSDYSIYK(OEG-OEG-yGlu-C20-OH)ERIAAQEFINWLIAGGPSSGAPPPS-NH2 (peptide)
peptide: H-Y[Aib]EGTFTSDYSIYK([AEEA-AEEA-γGlu-C20‑OH])ERIAAQEFINWLIAGGPSSGAPPPS-NH2
B9: compound 13# H-YAibEGTFTSDYSIYK(OEG-OEG-yGlu-C20-OH)ERIAAQEFVNWLIAGGPSSGAPPPS-NH2 (peptide)
peptide: H-Y[Aib]EGTFTSDYSIYK([AEEA-AEEA-γGlu-C20‑OH])ERIAAQEFVNWLIAGGPSSGAPPPS-NH2

Columns and labels:
[1] = molecular target: T1, human GIPR; assay: Agonist activity against GIPR, cAMP HTRF in CHO-K1 cells transiently transfected with hGIP receptor; type: cell-based
Method: Wild-type CHO-K1 cells were collected, and the cell suspension was adjusted to an appropriate density, seeded in a 6-well plate at 2 mL/well, and placed in an incubator at 37° C. with 5% CO2 for adherence culture overnight.

[2] = Stability of compounds in human plasma (LC-MS); type: in vitro ADME; details: human, read-out: Relative content of compounds retained in plasma (%)
Method: 5 μL of each of samples at concentrations of 20 ng/mL, 50 ng/mL, 100 ng/mL, 200 ng/mL, 500 ng/mL, 1000 ng/mL, 2000 ng/mL, 5000 ng/mL, and 10000 ng/mL was added to 45 L of human plasma. The content of the compounds in the samples was determined by the LC-MS method and a standard curve was formed. 5 μL of a 1 mg/mL polypeptide solution was added to 45 μL of human plasma. […] With the content at 0 min as the standard (100%), the relative content of the retained compounds in the samples at other time points was calculated.

[3] = molecular target: human glucagon-like peptide-1 receptor (GLP-1R) (human, UniProt P43220); assay: cell-based or functional assay
[4] = molecular target: T2, human glucose-dependent insulinotropic …; assay: cell-based or functional assay
[5] = Table 6 run, read-out: Activity against human GIPR (EC50 nM)

| Molecule | Activity against human GLP-1R (EC50 nM); cAMP, HTRF [3] [nM] | Activity against human GIPR (EC50 nM); cAMP, HTRF [4] [nM] | further results |
| --- | --- | --- | --- |
| CC[C@H](C)[C@H](NC(=O)[C@H](CC(C)C)NC(=O)[C@H](Cc1c[nH]c2ccccc12)NC(=O)[C@H](CCC(N)=O)NC(=O)[C@@H](NC(=O)[C@H](Cc1ccccc1)NC(=O)[C@H](C)NC(=O)[C@H](CCCCNC(=O)COCCOCCNC(=O)COCCOCCNC(=O)CC[C@H](NC(=O)CCCCCCCCCCCCCCCCCCC(=O)O)C(=O)O)NC(=O)[C@H](CCC(N)=O)NC(=O)[C@H](C)NC(=O)[C@@H](NC(=O)[C@H](CCCCN)NC(=O)[C@H](CC(=O)O)NC(=O)[C@H](CC(C)C)NC(=O)C(C)(C)NC(=O)[C@@H](NC(=O)[C@H](CO)NC(=O)[C@H](Cc1ccc(O)cc1)NC(=O)[C@H](CC(=O)O)NC(=O)[C@H](CO)NC(=O)[C@@H](NC(=O)[C@H](Cc1ccccc1)NC(=O)[C@@H](NC(=O)CNC(=O)[C@H](CCC(=O)O)NC(=O)C(C)(C)NC(=O)[C@@H](N)Cc1ccc(O)cc1)[C@@H](C)O)[C@@H](C)O)[C@@H](C)CC)[C@@H](C)CC)C(C)C)C(=O)N[C@@H](C)C(=O)NCC(=O)NCC(=O)N1CCC[C@H]1C(=O)N[C@@H](CO)C(=O)N[C@@H](CO)C(=O)NCC(=O)N[C@@H](C)C(=O)N1CCC[C@H]1C(=O)N1CCC[C@H]1C(=O)N1CCC[C@H]1C(=O)N[C@@H](CO)C(N)=O [LY3298176, reference compound] | – | – | EC50 [1]: 0.031 nM; remaining at 1 h, 0.1 mg/mL ([2]; 60 min): 115%; remaining at 2 h, 0.1 mg/mL ([2]; 120 min): 118%; remaining at 4 h, 0.1 mg/mL ([2]; 240 min): 113% |
| CC[C@H](C)[C@H](NC(=O)[C@H](CCCCNC(=O)COCCOCCNC(=O)COCCOCCNC(=O)CC[C@H](NC(=O)CCCCCCCCCCCCCCCCCCC(=O)O)C(=O)O)NC(=O)[C@H](CCC(=O)O)NC(=O)[C@H](CC(C)C)NC(=O)[C@H](Cc1ccc(O)cc1)NC(=O)[C@@H](NC(=O)[C@H](CO)NC(=O)[C@H](Cc1ccc(O)cc1)NC(=O)[C@H](CC(=O)O)NC(=O)[C@H](CO)NC(=O)[C@@H](NC(=O)[C@H](Cc1ccccc1)NC(=O)[C@@H](NC(=O)CNC(=O)[C@H](CCC(=O)O)NC(=O)C(C)(C)NC(=O)[C@@H](N)Cc1ccc(O)cc1)[C@@H](C)O)[C@@H](C)O)[C@@H](C)CC)C(=O)N[C@@H](C)C(=O)N[C@@H](C)C(=O)N[C@@H](CCC(N)=O)C(=O)N[C@@H](CCC(=O)O)C(=O)N[C@@H](Cc1ccccc1)C(=O)N[C@H](C(=O)N[C@@H](CC(N)=O)C(=O)N[C@@H](Cc1c[nH]c2ccccc12)C(=O)N[C@@H](CC(C)C)C(=O)N[C@H](C(=O)N[C@@H](C)C(=O)NCC(=O)NCC(=O)N1CCC[C@H]1C(=O)N[C@@H](CO)C(=O)N[C@@H](CO)C(=O)NCC(=O)N[C@@H](C)C(=O)N1CCC[C@H]1C(=O)N1CCC[C@H]1C(=O)N1CCC[C@H]1C(=O)N[C@@H](CO)C(N)=O)[C@@H](C)CC)[C@@H](C)CC [Compound 10] (H-Y[Aib]EGTFTSDYSIYLEK([AEEA-AEEA-γGlu-C20 diacid])IAAQEFINWLIAGGPSSGAPPPS-NH2) | – | – | EC50 [1, 5]: 0.056 nM |
| CC[C@H](C)[C@H](NC(=O)[C@H](CCCNC(=N)N)NC(=O)[C@H](CCC(=O)O)NC(=O)[C@H](CCCCNC(=O)COCCOCCNC(=O)COCCOCCNC(=O)CC[C@H](NC(=O)CCCCCCCCCCCCCCCCCCC(=O)O)C(=O)O)NC(=O)[C@H](Cc1ccc(O)cc1)NC(=O)[C@@H](NC(=O)[C@H](CO)NC(=O)[C@H](Cc1ccc(O)cc1)NC(=O)[C@H](CC(=O)O)NC(=O)[C@H](CO)NC(=O)[C@@H](NC(=O)[C@H](Cc1ccccc1)NC(=O)[C@@H](NC(=O)CNC(=O)[C@H](CCC(=O)O)NC(=O)C(C)(C)NC(=O)[C@@H](N)Cc1ccc(O)cc1)[C@@H](C)O)[C@@H](C)O)[C@@H](C)CC)C(=O)N[C@@H](C)C(=O)N[C@@H](C)C(=O)N[C@@H](CCC(N)=O)C(=O)N[C@@H](CCC(=O)O)C(=O)N[C@@H](Cc1ccccc1)C(=O)N[C@H](C(=O)N[C@@H](CC(N)=O)C(=O)N[C@@H](Cc1c[nH]c2ccccc12)C(=O)N[C@@H](CC(C)C)C(=O)N[C@@H](CC(C)C)C(=O)N[C@@H](C)C(=O)NCC(=O)NCC(=O)N1CCC[C@H]1C(=O)N[C@@H](CO)C(=O)N[C@@H](CO)C(=O)NCC(=O)N[C@@H](C)C(=O)N1CCC[C@H]1C(=O)N1CCC[C@H]1C(=O)N1CCC[C@H]1C(=O)N[C@@H](CO)C(N)=O)C(C)C [Compound 17] (H-Y[Aib]EGTFTSDYSIYK([AEEA-AEEA-γGlu-C20 diacid])ERIAAQEFVNWLLAGGPSSGAPPPS-NH2) | – | – | EC50 [1, 5]: 0.11 nM |
| CC[C@H](C)[C@H](NC(=O)[C@H](CCCNC(=N)N)NC(=O)[C@H](CCC(=O)O)NC(=O)[C@H](CCCCNC(=O)COCCOCCNC(=O)COCCOCCNC(=O)CC[C@H](NC(=O)CCCCCCCCCCCCCCCCCCC(=O)O)C(=O)O)NC(=O)[C@H](Cc1ccc(O)cc1)NC(=O)[C@@H](NC(=O)[C@H](CO)NC(=O)[C@H](Cc1ccc(O)cc1)NC(=O)[C@H](CC(=O)O)NC(=O)[C@H](CO)NC(=O)[C@@H](NC(=O)[C@H](Cc1ccccc1)NC(=O)[C@@H](NC(=O)CNC(=O)[C@H](CCC(=O)O)NC(=O)C(C)(C)NC(=O)[C@@H](N)Cc1ccc(O)cc1)[C@@H](C)O)[C@@H](C)O)[C@@H](C)CC)C(=O)N[C@@H](C)C(=O)N[C@@H](C)C(=O)N[C@@H](CCC(N)=O)C(=O)N[C@@H](CCC(=O)O)C(=O)N[C@@H](Cc1ccccc1)C(=O)N[C@H](C(=O)N[C@@H](CC(N)=O)C(=O)N[C@@H](Cc1c[nH]c2ccccc12)C(=O)N[C@@H](CC(C)C)C(=O)N[C@H](C(=O)N[C@@H](C)C(=O)NCC(=O)NCC(=O)N1CCC[C@H]1C(=O)N[C@@H](CO)C(=O)N[C@@H](CO)C(=O)NCC(=O)N[C@@H](C)C(=O)N1CCC[C@H]1C(=O)N1CCC[C@H]1C(=O)N1CCC[C@H]1C(=O)N[C@@H](CO)C(N)=O)[C@@H](C)CC)C(C)C [Compound 13] (H-Y[Aib]EGTFTSDYSIYK([AEEA-AEEA-γGlu-C20 diacid])ERIAAQEFVNWLIAGGPSSGAPPPS-NH2) | – | – | EC50 [1, 5]: 0.13 nM |
| B1 | 0.013 | 0.06 | – |
| B2 | 0.013 | 0.13 | – |
| B3 | 0.022 | 0.11 | – |
| B4 | 0.065 | 0.056 | – |
| B5 | 0.049 | 0.04 | – |
| B6 | 0.029 | 0.095 | – |
| B7 | 0.03 | 0.17 | – |
| B8 | 0.015 | 0.23 | – |
| B9 | 0.017 | 0.13 | – |
